Laboratory results published in patent US20050221395A1, “Methods and products based on oligomerization of stress proteins” (priority 2002, published 2005).
“And” between values parts separate entries of the source, which are not always exact repeats. Identical values can stand only once.

Legend:
[1] = ATPase activity, luciferin-luciferase luminescence assay (geldanamycin inhibitable); assay type: biochemical; details: for ATPase activity of SEC fractions (rate of ATP hydrolysis per mg protein): SEC fractions of human tumor derived gp96-peptide complex (FIG. 6); for ATPase: gp96 loaded with AH1 19mer peptide
Method: Finally, ATPase activity of each fraction was determined based on the loss of ATP using a luciferin-luciferase luminescence assay. Values are reported as the rate of ATP hydrolysis per mg protein. […] The ATPase activity was in the dimer containing fractions with minimal activity in the high molecular weight aggregate and monomer fractions.
ATPase activity was measured as the loss of ATP following 4 hr. of incubation at 37° C. using a luciferin-luciferase luminescence assay. Values are reported as the rate of ATP hydrolysis per mg protein and represent only the activity that is geldanamycin inhibitable to ensure specificity for the hsp90 family of heat shock proteins.
The assay is performed as follows. Gp96 samples (2 μL, 500 μg/mL in PBS) were mixed with 2 μL of a solution comprising a 10 fold molar excess ATP in PBS containing 12.5 mM MgCl2, and either 20% (v/v) DMSO or DMSO containing […] geldanamycin. This mixture was incubated at 37° C. for 4 hr. Samples were then diluted to 100 μL with PBS and the ATP contained in 50 μL of each sample was quantified using the ROCHE CLSII bioluminescence ATP assay kit. Bioluminescence was measured using a Molecular Devices Lmax luminometer. The difference in ATP concentration between uninhibited and Geldanamycin-inhibited measurements reflects the amount of ATP hydrolysis specific to gp96. Rates were calculated from this differential and expressed as nmoles of ATP hydrolyzed per mg protein per hr.

[2] = % dimer by size exclusion chromatography (SEC); assay type: physicochemical; details: for % Dimer: Superose 6 column, gp96 loaded with AH1 19mer peptide
Method: Gp96-peptide complex was isolated from murine CT-26 tumors. Separate aliquots of each preparation were either maintained at 4° C. (untreated) or subjected to mild heat treatment to denature the complex.
HPLC size exclusion chromatography is currently being optimized and has been run under a few different formats. The column was either a TSK 3000SWXL (Toso Haus) or a Superose 6 (Amersham Pharmacia) equilibrated in 10 mM phosphate buffer, pH 7.1, with 300 mM NaCl. All experiments were run at room temperature on a Waters Alliance or HP 1100 HPLC systems at a flow rate of 0.5 mL/min. The following results for human tumor derived gp96 (reported in Table 3, below) were all analyzed on the Superose 6 column. % dimer values represent the area percent of the dimer peak relative to total peak area.

[3] = system: AH1 peptide-specific CTLs co-cultured with RAW264.7 cells; assay: hybrid antigen re-presentation assay (IFN-γ by ELISA); assay type: cell-based, mouse; details: for IFN-γ response (T-cell stimulation): 10 μg/mL or diluted with unloaded gp96 at 1:3, 1:10 or 1:30, APCs and CTLs (FIG. 7); for ability to stimulate T-cells: heated at 60° C. for 10 min
Method: For this purpose, a hybrid antigen re-presentation bioassay system was developed in which the mouse antigen, AH1 peptide, for which a mouse CD8 T-cell line is available, was exchanged in vitro onto human tumor derived hsp. The gp96-peptide complex was then tested for its ability to facilitate antigen re-presentation and antigen-specific T-cell stimulation.
The antigen presenting cell line, RAW264.7 (ATCC #TIB-71), is an Abelson murine leukemia virus transformed macrophage cell line, which originated from the BALB/c strain (H-2^d). The CTL line specific for the murine CT26 tumor derived AH1 epitope was obtained from P. Srivastava (U. of Conn. Medical Center). They were re-stimulated on a weekly basis with the AH1 peptide plus irradiated BALB/c splenocytes. The 9 amino acid AH1 peptide epitope ([…]) and the 19mer peptide ([…]) which contained this epitope were obtained from Sigma Genosys 1442 lake Front Circle, The Woodlands, Tex. 77380-3600.
AH1 19mer peptide was added to purified gp96 preparations at a ratio of 50:1 peptide to protein and the mixture incubated at 37° C. for 30 mm. Unbound peptide was removed by 4 cycles of spin dialysis with 10 volumes of PBS using 30K MWCO Centricon spin filter units (Millipore). Total protein was determined by the Bradford assay.
The in vitro antigen re-presentation assay has been described. Briefly, 10^4 AH1 peptide-specific CTLs (day 8 post stimulation) were co-cultured with 10^4 RAW264.7 cells in 96-well flat bottom plates. In vitro loaded gp96 samples at 10 μg/mL were analyzed neat or diluted with unloaded gp96 at the indicated amounts in order to maintain constant protein concentration. Protein samples and controls were added to the wells and incubated at 37° C. for 18 hr. Following centrifugation, the supernatants were harvested for analysis of IFN-γ levels by ELISA (R&D Systems). Reported values represent the average of six replicates. AH1 9mer peptide served as a positive control and unloaded gp96, AH1 19mer peptide and media alone as negative controls. Additional negative controls were provided by applying identical sets of samples to plates that contained either CTLs or APCs only.
The hybrid re-presentation assay measures the ability of human gp96, loaded with AH1 19mer peptide, to deliver antigen to mouse APCs to facilitate re-presentation leading to simulation of antigen specific T-cells. […] The second and third panels are controls for CTLs and APCs alone. Each data set contains media alone, unloaded gp96 and AH1 19mer as negative controls and AH1 9mer peptide, which can exchange directly onto surface MHC I molecules, as the positive control. Gp96/AH1 19mer complex was applied at 10 μg/mL or diluted with unloaded gp96 at 1:3, 1:10 or 1:30.

Fractions 8-10: SEC fractions of human ovarian tumor derived gp96-peptide complex representing the dimer
ATPase activity of SEC fractions (rate of ATP hydrolysis per mg protein) [1]: highest

fractions 2-5: SEC fractions of human ovarian tumor derived gp96-peptide complex containing mostly higher molecular weight aggregates
ATPase activity of SEC fractions (rate of ATP hydrolysis per mg protein) [1]: significantly less

fractions 11-15: SEC fractions of human ovarian tumor derived gp96-peptide complex: monomeric species, degradation products and lower molecular weight species
ATPase activity of SEC fractions (rate of ATP hydrolysis per mg protein) [1]: significantly less

human endometrial: gp96 purified from human endometrial tumor, loaded in vitro with AH1 19mer peptide (RVTYHSPSYVYHQFERRAK)
% Dimer ([2]; heated at 60° C. for 10 min): 0% | % Dimer ([2]; untreated): 86% and 83% | IFN-γ response (T-cell stimulation) [3]: dose dependent IFN-γ response | ability to stimulate T-cells [3]: abolished | ATPase ([1]; heated at 60° C. for 10 min): 0 nmol/mg/h | ATPase ([1]; untreated): 8.5 ± 0.3 nmol/mg/h and 9.4 ± 0.5 nmol/mg/h

human gp96-peptide complex: human gp96-peptide complex used in accelerated stability (mild heat) study
dimeric form by SEC ([2]; mild heat treatment): converted dimeric protein to high molecular weight aggregates | ATPase activity ([1]; mild heat treatment): abolished

human renal: gp96 purified from human renal cell carcinoma, loaded in vitro with AH1 19mer peptide
% Dimer ([2]; heated at 60° C. for 10 min): 0% | % Dimer ([2]; untreated): 84% | IFN-γ response (T-cell stimulation) [3]: specific and dose dependent stimulation of T-cells | ability to stimulate T-cells [3]: abrogated | ATPase ([1]; heated at 60° C. for 10 min): 0 nmol/mg/h | ATPase ([1]; untreated): 10.3 ± 0.1 nmol/mg/h

recombinant gp96: samples of recombinant gp96 incubated at various temperatures for 10 minutes (FIG. 8)
ATPase activity ([1]; incubated at the indicated temperatures for 10 minutes (FIG. 8)): loss of ATPase activity

unloaded gp96: human tumor derived gp96 not loaded with AH1 19mer peptide; negative control and diluent
IFN-γ response (T-cell stimulation) [3]: no stimulation
